The record followed here is patent EP0614981A1.

The assay concerns the target IFNγ (UniProt P01579). The assay is described as follows: cell-based or functional assay.
UniProt P01579, sequence (P01579 24-166 limits assumed): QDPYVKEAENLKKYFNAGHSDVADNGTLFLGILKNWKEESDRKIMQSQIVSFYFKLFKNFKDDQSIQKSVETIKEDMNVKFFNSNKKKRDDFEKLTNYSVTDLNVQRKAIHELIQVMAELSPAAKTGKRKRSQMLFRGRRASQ

As for “hIFNγR-HG1 (from UniProt P01857 99-330) (Fc fusion)”, the IC50 nM, inhibition of IFNγ antiviral activity (CPE, WISH cells, EMC virus) came to 26 nM and the IC50 µg/ml, inhibition of IFNγ antiviral activity (CPE, WISH cells, EMC virus) came to 4.4 µg/mL.

In turn, “hIFNγR-HG3 (from UniProt P01860 99-377) (Fc fusion)” yielded an IC50 nM, inhibition of IFNγ antiviral activity (CPE, WISH cells, EMC virus) of 11 nM and an IC50 µg/ml, inhibition of IFNγ antiviral activity (CPE, WISH cells, EMC virus) of 2 µg/mL.

soluble human IFNγ receptor (shIFNγR) showed an IC50 nM, inhibition of IFNγ antiviral activity (CPE, WISH cells, EMC virus) of 216 nM and an IC50 µg/ml, inhibition of IFNγ antiviral activity (CPE, WISH cells, EMC virus) of 6.7 µg/mL.
